In the supplement of paper PMC9112550, “Optimization of the antimicrobial peptide Bac7 by deep mutational scanning” (BMC Biology, 2022):

System: Escherichia coli TOP10
Assay: shrunken log2 fold change of peptide-encoding DNA abundance (4.5 h post-induction vs induction); higher = less antimicrobial activity (less host growth inhibition)
Conditions: time post-induction: 4.5 h; library: site-saturation at positions 5, 18, 19, 20
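Note: peptides expressed intracellularly from a pBAD plasmid library in pooled LB shake-flask culture, induced with 0.3% L-arabinose, DNA abundance read by NGS, three biological replicates, DESeq2 with apeglm shrinkage.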

Sequence	shrunken log2 fold change
RRIRPRPPRLPRPRPRPMVRPRP	-0.0349
RRIRKRPPRLPRPRPRPHQRPRP	-0.0795
RRIRYRPPRLPRPRPRPWKNPRP	-0.458
RRIRWRPPRLPRPRPRPYDLPRP	-0.021
RRIRERPPRLPRPRPRPWSWPRP	0.103
RRIRRRPPRLPRPRPRPPYKPRP	0.114
RRIRQRPPRLPRPRPRPLVNPRP	-0.0122
RRIRHRPPRLPRPRPRPQKEPRP	-0.03
RRIRPRPPRLPRPRPRPTPNPRP	0.579
RRIRMRPPRLPRPRPRPFIHPRP	-0.57
RRIRTRPPRLPRPRPRPAEIPRP	0.083
RRIRTRPPRLPRPRPRPICTPRP	0.409
RRIRIRPPRLPRPRPRPTQRPRP	0.187
RRIRHRPPRLPRPRPRPHGIPRP	-0.0284
RRIRIRPPRLPRPRPRPITVPRP	-0.426
RRIRTRPPRLPRPRPRPTFYPRP	-0.0485
RRIRRRPPRLPRPRPRPVTNPRP	0.266
RRIRNRPPRLPRPRPRPVCKPRP	-0.0239
RRIRGRPPRLPRPRPRPQIMPRP	0.173
RRIRERPPRLPRPRPRPDCAPRP	0.115
RRIRIRPPRLPRPRPRPRKLPRP	-0.529
RRIRMRPPRLPRPRPRPMWRPRP	0.00628

Sequence	shrunken log2 fold change
RRIRERPPRLPRPRPRPFIVPRP	-0.218
RRIRYRPPRLPRPRPRPCHMPRP	-0.218
RRIRMRPPRLPRPRPRPPNPPRP	0.822
RRIRPRPPRLPRPRPRPFCSPRP	-0.186
RRIRIRPPRLPRPRPRPATDPRP	-0.161
RRIRCRPPRLPRPRPRPKCNPRP	-0.201
RRIRLRPPRLPRPRPRPSKDPRP	-0.364
RRIRNRPPRLPRPRPRPRPYPRP	-0.25
RRIRQRPPRLPRPRPRPFVEPRP	-0.152
RRIRWRPPRLPRPRPRPLACPRP	0.206
RRIRSRPPRLPRPRPRPMLQPRP	-0.0416
RRIRWRPPRLPRPRPRPTRRPRP	0.377
RRIRFRPPRLPRPRPRPMVSPRP	-0.144
RRIRQRPPRLPRPRPRPWKYPRP	-0.149
RRIRYRPPRLPRPRPRPFSEPRP	0.41
RRIRMRPPRLPRPRPRPEQAPRP	4.07
RRIRKRPPRLPRPRPRPFINPRP	-0.148
RRIRSRPPRLPRPRPRPCSSPRP	-0.134
RRIRFRPPRLPRPRPRPVANPRP	-0.1
RRIRHRPPRLPRPRPRPGMWPRP	-0.0849
RRIRNRPPRLPRPRPRPQPPPRP	0.833
RRIRIRPPRLPRPRPRPIFGPRP	-0.164

Sequence	shrunken log2 fold change
RRIRPRPPRLPRPRPRPANTPRP	-0.224
RRIRGRPPRLPRPRPRPSVTPRP	0.708
RRIRCRPPRLPRPRPRPADWPRP	0.29
RRIRIRPPRLPRPRPRPVTAPRP	-0.299
RRIRHRPPRLPRPRPRPHNCPRP	-0.0289
RRIRGRPPRLPRPRPRPKVQPRP	1.06
RRIRYRPPRLPRPRPRPVSGPRP	-0.128
RRIRHRPPRLPRPRPRPWYDPRP	0.0351
RRIRNRPPRLPRPRPRPAQDPRP	0.288
RRIRLRPPRLPRPRPRPSCRPRP	-0.116
RRIRMRPPRLPRPRPRPEVLPRP	-0.0436
RRIRIRPPRLPRPRPRPVTWPRP	-0.372
RRIRGRPPRLPRPRPRPMWSPRP	0.89
RRIRIRPPRLPRPRPRPRMLPRP	-0.177
RRIRTRPPRLPRPRPRPVDCPRP	-0.142
RRIRVRPPRLPRPRPRPHFNPRP	-0.705
RRIRERPPRLPRPRPRPITKPRP	-0.107
RRIRKRPPRLPRPRPRPPYQPRP	0.0608
RRIRTRPPRLPRPRPRPECMPRP	0.378
RRIRCRPPRLPRPRPRPQDRPRP	-0.175
RRIRFRPPRLPRPRPRPTHYPRP	-0.0275
RRIRLRPPRLPRPRPRPKKRPRP	0.277

Sequence	shrunken log2 fold change
RRIRERPPRLPRPRPRPEYQPRP	0.00497
RRIRTRPPRLPRPRPRPRYGPRP	-0.284
RRIRHRPPRLPRPRPRPKQMPRP	-0.0152
RRIRYRPPRLPRPRPRPARQPRP	0.279
RRIRWRPPRLPRPRPRPGNYPRP	-0.00177
RRIRIRPPRLPRPRPRPHCQPRP	-0.173
RRIRDRPPRLPRPRPRPWDFPRP	0.238
RRIRERPPRLPRPRPRPDGMPRP	-0.0237
RRIRSRPPRLPRPRPRPHNGPRP	0.00483
RRIRGRPPRLPRPRPRPGWVPRP	0.892
RRIRCRPPRLPRPRPRPQYWPRP	-0.312
RRIRSRPPRLPRPRPRPPFMPRP	-0.0803
RRIRHRPPRLPRPRPRPQTFPRP	-0.105
RRIRPRPPRLPRPRPRPLSQPRP	-0.185
RRIRIRPPRLPRPRPRPQMQPRP	-0.325
RRIRHRPPRLPRPRPRPDLLPRP	-0.0324
RRIRTRPPRLPRPRPRPQWRPRP	0.207
RRIRLRPPRLPRPRPRPIGTPRP	-0.0773
RRIRERPPRLPRPRPRPCMAPRP	-0.336
RRIRYRPPRLPRPRPRPNHQPRP	-0.573
RRIRTRPPRLPRPRPRPYHDPRP	-0.13
RRIRQRPPRLPRPRPRPVMTPRP	-0.172

Sequence	shrunken log2 fold change
RRIRERPPRLPRPRPRPPKTPRP	-0.124
RRIRDRPPRLPRPRPRPCLCPRP	0.0206
RRIRARPPRLPRPRPRPNWWPRP	0.802
RRIRERPPRLPRPRPRPQNHPRP	-0.519
RRIRVRPPRLPRPRPRPVIGPRP	0.183
RRIRTRPPRLPRPRPRPMWDPRP	0.00971
RRIRYRPPRLPRPRPRPWATPRP	-0.379
RRIRNRPPRLPRPRPRPVTSPRP	-0.469
RRIRIRPPRLPRPRPRPMDTPRP	0.0627
RRIRQRPPRLPRPRPRPWKQPRP	-0.08
RRIRIRPPRLPRPRPRPAHNPRP	-0.271
RRIRFRPPRLPRPRPRPTEMPRP	-0.105
RRIRSRPPRLPRPRPRPWATPRP	-0.102
RRIRCRPPRLPRPRPRPKDCPRP	-0.0763
RRIRPRPPRLPRPRPRPCGEPRP	-0.0188
RRIRSRPPRLPRPRPRPRQNPRP	-0.0458
RRIRKRPPRLPRPRPRPTVAPRP	0.814
RRIRFRPPRLPRPRPRPTHVPRP	0.119
RRIRWRPPRLPRPRPRPRMIPRP	0.693
RRIRYRPPRLPRPRPRPFVHPRP	-1.49
RRIRLRPPRLPRPRPRPSDCPRP	-0.336
